Consider three molecules from paper doi:10.1101/2020.06.12.148387 (bioRxiv, 2020).

For test [1], the target named is T1, S1 subunit of SARS-CoV-1 Spike (SARS-CoV-1 (SARS-CoV), strain , UniProt P59594).
T1 construct: source: bought: Sino Biological
Briefly: ELISA.

In test [2] the target is biotinylated SARS-CoV-2 RBD (SARS-CoV-2, UniProt P0DTC2). Nature of the test: cell-based ACE2 blocking assay (plate, streptavidin-HRP).
The next test has as its target SARS-CoV-2 RBD-Fc (SARS-CoV-2, strain  …, UniProt P0DTC2). Nature of the test: SPR. Conditions: both partners purified.
Test [3] addresses deglycosylated SARS-CoV-2 RBD (SARS-CoV-2, UniProt P0DTC2). Briefly: crystal structure. To be noted: both partners purified.

B1: EY6A IgG (antibody, V domains shown)
VH: EVQLVESGGGVVQPGRSLRLSCAASAFTFSSYDMHWVRQAPGKGLEWVAVISYDGSNKYYADSVKGRFTISRDNSKNTLYLQMNSLRAEDTAVYYCAKDGGKLWVYYFDYWGQGTLVTVSS
VL: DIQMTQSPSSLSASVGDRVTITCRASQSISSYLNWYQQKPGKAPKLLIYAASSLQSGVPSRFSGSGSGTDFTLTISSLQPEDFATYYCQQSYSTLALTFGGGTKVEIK
notes: also called antibody EY6A; EY6A mAb; copies: 2 + 2
As usually defined, the IC50 is the concentration that gives 50% inhibition. Turning to B1, in test [1], the binding result is “binds”. The IC50 in test [2] was found to be 54 nM.

B2: EY6A Fab (digested from IgG with papain) (Fab, V domains shown)
VH: EVQLVESGGGVVQPGRSLRLSCAASAFTFSSYDMHWVRQAPGKGLEWVAVISYDGSNKYYADSVKGRFTISRDNSKNTLYLQMNSLRAEDTAVYYCAKDGGKLWVYYFDYWGQGTLVTVSS
VL: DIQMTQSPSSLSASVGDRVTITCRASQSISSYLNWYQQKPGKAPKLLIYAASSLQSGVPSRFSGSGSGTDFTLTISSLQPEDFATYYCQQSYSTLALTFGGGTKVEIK
notes: also called Fab-EY6A; source: digested from ExpiCHO-made IgG with papain (Pierce Fab Preparation Kit)
As a reminder, the Kd is the concentration at which binding is half-saturated. A higher Kd goes with lower affinity. B2 had a Kd in the test with SARS-CoV-2 RBD-Fc of 2 nM.

B3: nanobody (Nb) used as crystallisation chaperone (VHH)
VHH: QVQLVESGGGLMQAGGSLRLSCAVSGRTFSTAAMGWFRQAPGKEREFVAAIRWSGGSAYYADSVKGRFTISRDKAKNTVYLQMNSLKYEDTAVYYCAQTHYVSYLLSDYATWPYDYWGQGTQVTVSS
Turning to B3, in test [3], the binding result is recorded as “binds”.
